What all share (assay): PBM
In data set [1] the target is p65 (RELA, NF-kB) (Homo sapiens (THP-1-derived macrophages)) (UniProt Q04206). The settings on record: Nuclear extract PBM (PMA-differentiated THP-1; untreated, LPS 45 min, or IFNg+LPS), antibody detection, buffer, salt, pH and temperature not in the material.
Data set [2] concerns the target PU.1 (Homo sapiens (THP-1-derived macrophages)) (UniProt P17947). Particulars: IFNg+LPS extract; Nuclear extract PBM (PMA-differentiated THP-1; untreated, LPS 45 min, or IFNg+LPS), antibody detection; buffer, salt, pH and temperature not in the material.
The target in data set [3] is p300 complex (Homo sapiens (THP-1-derived macrophages)) (UniProt Q09472). Particulars: Nuclear extract PBM (PMA-differentiated THP-1; untreated, LPS 45 min, or IFNg+LPS), antibody detection, buffer, salt, pH and temperature not in the material.
Data set [4] deals with SMARCA4/BRG1 complex (Homo sapiens (THP-1-derived macrophages)) (UniProt P51532). The settings on record: IFNg+LPS extract, Nuclear extract PBM (PMA-differentiated THP-1; untreated, LPS 45 min, or IFNg+LPS), antibody detection, buffer, salt, pH and temperature not in the material.
For data set [5], the target named is T1, TBL1XR1 complex (Homo sapiens (THP-1-derived macrophages)) (UniProt Q9BZK7).
T1 sequence: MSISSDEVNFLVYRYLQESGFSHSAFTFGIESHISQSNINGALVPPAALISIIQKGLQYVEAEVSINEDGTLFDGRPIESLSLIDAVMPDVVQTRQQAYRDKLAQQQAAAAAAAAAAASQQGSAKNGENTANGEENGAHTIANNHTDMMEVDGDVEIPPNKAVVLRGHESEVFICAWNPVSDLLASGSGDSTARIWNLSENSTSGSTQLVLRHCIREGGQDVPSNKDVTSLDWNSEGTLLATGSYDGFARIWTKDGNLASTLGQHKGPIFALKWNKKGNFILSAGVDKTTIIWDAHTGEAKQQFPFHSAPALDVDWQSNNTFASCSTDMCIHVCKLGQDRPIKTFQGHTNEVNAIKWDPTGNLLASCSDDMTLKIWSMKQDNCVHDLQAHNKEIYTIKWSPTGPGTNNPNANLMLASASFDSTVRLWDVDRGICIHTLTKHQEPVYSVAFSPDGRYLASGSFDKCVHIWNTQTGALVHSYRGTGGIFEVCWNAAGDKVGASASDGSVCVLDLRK
Particulars: IFNg+LPS extract, Nuclear extract PBM (PMA-differentiated THP-1; untreated, LPS 45 min, or IFNg+LPS), antibody detection, buffer, salt, pH and temperature not in the material.

Data set [6] deals with GCN5 complex (Homo sapiens (THP-1-derived macrophages)) (UniProt Q92830). The settings on record: IFNg+LPS extract; Nuclear extract PBM (PMA-differentiated THP-1; untreated, LPS 45 min, or IFNg+LPS), antibody detection; buffer, salt, pH and temperature not in the material.
Data set [7] has as its target RBBP5 complex (Homo sapiens (THP-1-derived macrophages)) (UniProt Q15291). Particulars: Nuclear extract PBM (PMA-differentiated THP-1; untreated, LPS 45 min, or IFNg+LPS), antibody detection, buffer, salt, pH and temperature not in the material.
The target of data set [8] is T2, IRF3 (Homo sapiens (THP-1-derived macrophages)) (UniProt Q14653).
T2 sequence: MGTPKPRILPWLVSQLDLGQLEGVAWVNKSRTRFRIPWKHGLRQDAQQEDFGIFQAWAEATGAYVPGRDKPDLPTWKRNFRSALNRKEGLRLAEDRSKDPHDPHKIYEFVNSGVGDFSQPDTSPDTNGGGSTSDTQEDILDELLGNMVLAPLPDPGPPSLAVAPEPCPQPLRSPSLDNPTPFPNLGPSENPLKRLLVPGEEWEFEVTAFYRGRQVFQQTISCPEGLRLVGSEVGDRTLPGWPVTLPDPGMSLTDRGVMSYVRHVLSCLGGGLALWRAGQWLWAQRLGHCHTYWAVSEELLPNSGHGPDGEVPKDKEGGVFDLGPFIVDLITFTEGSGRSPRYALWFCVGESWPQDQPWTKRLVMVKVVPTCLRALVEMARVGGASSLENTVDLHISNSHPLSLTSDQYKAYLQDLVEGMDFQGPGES
The settings on record: LPS 45 min extract; likely tethered by NF-kB; Nuclear extract PBM (PMA-differentiated THP-1; untreated, LPS 45 min, or IFNg+LPS), antibody detection; buffer, salt, pH and temperature not in the material.

The mark [9] stands for this setting: not recruited or below detection.

Chain of p300 complex (Homo sapiens (THP-1-derived macrophages)) (Q09472 whole entry, one chain of several): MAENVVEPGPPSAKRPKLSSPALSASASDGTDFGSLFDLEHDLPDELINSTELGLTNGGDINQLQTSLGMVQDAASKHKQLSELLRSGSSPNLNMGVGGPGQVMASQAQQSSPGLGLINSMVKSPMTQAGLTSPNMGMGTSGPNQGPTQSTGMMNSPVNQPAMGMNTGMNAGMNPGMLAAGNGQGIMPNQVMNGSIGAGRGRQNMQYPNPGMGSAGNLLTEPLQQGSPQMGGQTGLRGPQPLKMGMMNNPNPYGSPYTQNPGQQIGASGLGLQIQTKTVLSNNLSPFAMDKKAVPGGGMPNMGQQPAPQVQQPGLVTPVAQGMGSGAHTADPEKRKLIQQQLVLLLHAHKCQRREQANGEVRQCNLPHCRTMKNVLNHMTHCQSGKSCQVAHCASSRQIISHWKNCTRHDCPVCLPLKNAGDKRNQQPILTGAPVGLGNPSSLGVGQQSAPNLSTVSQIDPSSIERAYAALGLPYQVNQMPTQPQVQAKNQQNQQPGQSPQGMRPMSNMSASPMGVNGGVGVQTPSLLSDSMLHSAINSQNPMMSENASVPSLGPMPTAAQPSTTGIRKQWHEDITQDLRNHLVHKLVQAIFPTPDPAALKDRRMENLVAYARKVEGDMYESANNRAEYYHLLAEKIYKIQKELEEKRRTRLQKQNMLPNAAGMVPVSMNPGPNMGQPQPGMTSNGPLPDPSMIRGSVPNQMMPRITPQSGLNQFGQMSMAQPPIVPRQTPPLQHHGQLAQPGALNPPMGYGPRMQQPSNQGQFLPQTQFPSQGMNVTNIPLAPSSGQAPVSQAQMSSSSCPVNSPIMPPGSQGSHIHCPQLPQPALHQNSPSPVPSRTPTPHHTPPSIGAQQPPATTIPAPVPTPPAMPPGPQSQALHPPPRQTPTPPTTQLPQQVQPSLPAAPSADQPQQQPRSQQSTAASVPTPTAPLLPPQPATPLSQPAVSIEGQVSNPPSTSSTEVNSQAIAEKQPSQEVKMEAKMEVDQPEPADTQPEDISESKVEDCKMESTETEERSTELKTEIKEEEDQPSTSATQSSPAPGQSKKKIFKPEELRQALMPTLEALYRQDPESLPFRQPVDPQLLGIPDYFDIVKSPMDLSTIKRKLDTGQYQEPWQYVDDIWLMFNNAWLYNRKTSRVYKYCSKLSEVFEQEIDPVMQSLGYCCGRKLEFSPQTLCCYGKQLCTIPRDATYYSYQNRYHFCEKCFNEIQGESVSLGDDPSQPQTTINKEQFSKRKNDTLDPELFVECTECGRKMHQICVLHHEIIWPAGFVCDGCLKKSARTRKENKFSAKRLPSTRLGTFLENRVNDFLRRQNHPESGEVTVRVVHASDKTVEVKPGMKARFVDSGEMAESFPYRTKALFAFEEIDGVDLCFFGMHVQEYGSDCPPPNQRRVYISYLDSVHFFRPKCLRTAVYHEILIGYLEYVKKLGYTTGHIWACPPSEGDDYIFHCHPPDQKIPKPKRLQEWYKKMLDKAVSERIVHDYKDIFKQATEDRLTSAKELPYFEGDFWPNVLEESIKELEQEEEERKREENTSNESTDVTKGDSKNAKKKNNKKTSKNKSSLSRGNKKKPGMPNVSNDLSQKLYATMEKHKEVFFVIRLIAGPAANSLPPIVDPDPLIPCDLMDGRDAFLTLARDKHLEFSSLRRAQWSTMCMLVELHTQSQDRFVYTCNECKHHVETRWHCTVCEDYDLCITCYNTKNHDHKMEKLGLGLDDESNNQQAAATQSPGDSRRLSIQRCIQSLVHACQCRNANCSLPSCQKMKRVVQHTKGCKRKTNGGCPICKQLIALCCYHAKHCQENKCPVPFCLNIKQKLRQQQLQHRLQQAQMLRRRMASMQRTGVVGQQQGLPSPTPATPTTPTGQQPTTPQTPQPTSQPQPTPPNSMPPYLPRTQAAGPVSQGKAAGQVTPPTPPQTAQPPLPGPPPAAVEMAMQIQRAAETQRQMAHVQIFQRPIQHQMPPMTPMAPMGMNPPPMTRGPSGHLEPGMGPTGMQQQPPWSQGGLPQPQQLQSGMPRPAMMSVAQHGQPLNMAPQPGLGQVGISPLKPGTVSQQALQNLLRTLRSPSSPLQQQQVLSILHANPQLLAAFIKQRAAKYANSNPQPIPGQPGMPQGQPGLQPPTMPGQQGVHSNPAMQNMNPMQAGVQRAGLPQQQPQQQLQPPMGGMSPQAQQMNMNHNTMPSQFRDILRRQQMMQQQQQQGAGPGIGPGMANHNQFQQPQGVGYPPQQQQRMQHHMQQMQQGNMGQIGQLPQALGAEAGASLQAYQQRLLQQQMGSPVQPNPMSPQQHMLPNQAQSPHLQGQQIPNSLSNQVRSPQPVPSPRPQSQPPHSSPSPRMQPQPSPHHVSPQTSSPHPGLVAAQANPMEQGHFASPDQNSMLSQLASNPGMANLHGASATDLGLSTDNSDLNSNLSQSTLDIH
Chain of p65 (RELA, NF-kB) (Homo sapiens (THP-1-derived macrophages)) (Q04206 whole entry): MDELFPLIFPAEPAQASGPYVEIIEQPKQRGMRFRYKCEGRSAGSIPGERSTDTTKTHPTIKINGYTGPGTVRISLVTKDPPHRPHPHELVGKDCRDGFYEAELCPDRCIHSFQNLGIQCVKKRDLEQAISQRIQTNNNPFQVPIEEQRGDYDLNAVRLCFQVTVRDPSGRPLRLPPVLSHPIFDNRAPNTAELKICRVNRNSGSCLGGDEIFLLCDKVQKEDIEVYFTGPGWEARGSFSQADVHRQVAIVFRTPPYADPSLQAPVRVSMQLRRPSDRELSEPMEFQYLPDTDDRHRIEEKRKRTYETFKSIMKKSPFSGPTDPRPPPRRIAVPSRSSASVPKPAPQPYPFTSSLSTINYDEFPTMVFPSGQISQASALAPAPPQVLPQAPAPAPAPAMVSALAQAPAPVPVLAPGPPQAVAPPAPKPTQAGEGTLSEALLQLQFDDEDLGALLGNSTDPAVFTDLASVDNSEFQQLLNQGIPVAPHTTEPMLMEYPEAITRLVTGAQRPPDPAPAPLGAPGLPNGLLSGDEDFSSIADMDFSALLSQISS
Chain of RBBP5 complex (Homo sapiens (THP-1-derived macrophages)) (Q15291 whole entry, one chain of several): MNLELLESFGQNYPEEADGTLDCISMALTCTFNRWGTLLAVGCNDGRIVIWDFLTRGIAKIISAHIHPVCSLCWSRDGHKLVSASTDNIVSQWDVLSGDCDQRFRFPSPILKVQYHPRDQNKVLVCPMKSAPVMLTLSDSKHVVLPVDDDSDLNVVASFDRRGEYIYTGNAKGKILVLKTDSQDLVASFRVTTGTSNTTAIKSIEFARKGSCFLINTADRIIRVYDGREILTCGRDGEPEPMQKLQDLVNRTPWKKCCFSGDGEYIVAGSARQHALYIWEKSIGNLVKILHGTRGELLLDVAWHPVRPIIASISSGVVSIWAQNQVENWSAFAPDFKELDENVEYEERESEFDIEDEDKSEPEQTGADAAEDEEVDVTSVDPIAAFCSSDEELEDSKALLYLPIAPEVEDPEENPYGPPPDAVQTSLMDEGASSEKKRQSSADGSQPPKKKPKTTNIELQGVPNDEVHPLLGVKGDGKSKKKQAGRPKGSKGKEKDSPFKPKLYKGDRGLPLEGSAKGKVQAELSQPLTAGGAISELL
Chain of SMARCA4/BRG1 complex (Homo sapiens (THP-1-derived macrophages)) (P51532 whole entry, one chain of several): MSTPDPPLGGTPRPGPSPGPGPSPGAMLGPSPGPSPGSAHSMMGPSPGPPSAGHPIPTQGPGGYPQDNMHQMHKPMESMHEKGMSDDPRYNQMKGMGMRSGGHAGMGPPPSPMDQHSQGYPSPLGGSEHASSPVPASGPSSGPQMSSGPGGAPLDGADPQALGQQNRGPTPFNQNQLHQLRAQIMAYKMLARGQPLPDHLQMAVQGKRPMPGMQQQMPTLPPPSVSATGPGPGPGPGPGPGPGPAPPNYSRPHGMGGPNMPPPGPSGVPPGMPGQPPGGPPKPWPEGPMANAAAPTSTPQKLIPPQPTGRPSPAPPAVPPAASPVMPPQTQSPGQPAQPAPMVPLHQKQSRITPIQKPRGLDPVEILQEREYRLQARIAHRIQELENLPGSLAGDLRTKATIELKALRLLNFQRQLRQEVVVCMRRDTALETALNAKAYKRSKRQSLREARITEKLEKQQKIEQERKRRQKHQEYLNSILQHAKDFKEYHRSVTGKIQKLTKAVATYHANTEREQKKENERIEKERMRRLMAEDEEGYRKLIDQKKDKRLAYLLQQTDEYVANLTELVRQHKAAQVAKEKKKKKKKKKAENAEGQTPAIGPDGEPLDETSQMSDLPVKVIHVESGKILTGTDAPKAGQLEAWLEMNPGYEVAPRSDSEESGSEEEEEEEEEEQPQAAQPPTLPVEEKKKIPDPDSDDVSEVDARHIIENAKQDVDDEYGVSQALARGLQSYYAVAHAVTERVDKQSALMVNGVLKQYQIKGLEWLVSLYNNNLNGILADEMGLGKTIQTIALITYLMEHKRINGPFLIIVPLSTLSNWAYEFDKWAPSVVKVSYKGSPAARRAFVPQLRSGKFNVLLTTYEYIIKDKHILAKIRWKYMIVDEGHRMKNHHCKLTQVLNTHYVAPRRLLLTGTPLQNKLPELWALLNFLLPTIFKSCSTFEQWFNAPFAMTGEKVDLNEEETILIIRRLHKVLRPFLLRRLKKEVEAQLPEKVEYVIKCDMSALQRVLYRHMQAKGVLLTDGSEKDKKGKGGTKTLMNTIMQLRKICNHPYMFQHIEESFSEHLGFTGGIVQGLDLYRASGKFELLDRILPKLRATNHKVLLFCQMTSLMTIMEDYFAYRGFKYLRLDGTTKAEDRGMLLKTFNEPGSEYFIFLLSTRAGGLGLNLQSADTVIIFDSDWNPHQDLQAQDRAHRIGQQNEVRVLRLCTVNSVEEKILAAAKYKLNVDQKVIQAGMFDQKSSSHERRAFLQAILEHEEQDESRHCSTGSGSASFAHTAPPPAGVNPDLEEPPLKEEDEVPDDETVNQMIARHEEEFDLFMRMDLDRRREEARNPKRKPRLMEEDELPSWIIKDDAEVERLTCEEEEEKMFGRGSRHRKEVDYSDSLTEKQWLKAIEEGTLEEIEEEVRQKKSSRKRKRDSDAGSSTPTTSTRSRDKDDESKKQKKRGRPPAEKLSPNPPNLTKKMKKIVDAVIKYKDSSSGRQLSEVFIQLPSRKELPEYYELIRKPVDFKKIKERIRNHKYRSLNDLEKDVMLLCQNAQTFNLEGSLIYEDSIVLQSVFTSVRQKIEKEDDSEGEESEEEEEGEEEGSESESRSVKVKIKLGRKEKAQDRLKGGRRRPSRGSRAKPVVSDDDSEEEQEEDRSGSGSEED

For the sequence “GCCTAGTATTATTTATTGTAGCCTCCAAGTTACTAGGTCTTGATTCGCTTGACGCTGCTG (double strand) [CXCL10 tile 12]”, the binding signal in data set [1] (LPS 45 min extract) is -0.454 Z score.
“TGATGCAATGAAGTGGGGAAGTATTA (double strand) [rs11950944 REF (G)]”: the binding signal in data set [2] was 4.04 Z score; in data set [3] (IFNg+LPS extract, not recruited or below detection), -0.13 Z score; in data set [4] (setting [9]), -0.38 Z score; in data set [5] (setting [9]), 0.37 Z score.
In the case of “GCCTAGCCATGTTGCAGACTCGAAGGTATTATCTAGGTCTTGATTCGCTTGACGCTGCTG (double strand) [CXCL10 tile 8]”, in data set [1] (LPS 45 min extract), the binding signal came to 0.079 Z score.
Still for that read-out and setting: the value for “GCCTAGCAAAACCTGCTGGCTGTTCCTGGGGACTAGGTCTTGATTCGCTTGACGCTGCTG (double strand) [CXCL10 tile 2]” was -0.374 Z score; that for “GCCTAGGAAGGTATTATTTATTGTAGCCTCCACTAGGTCTTGATTCGCTTGACGCTGCTG (double strand) [CXCL10 tile 11]” was -1.38 Z score; that for “GCCTAGTGGGGAAGTCCCATGTTGCAGACTCGCTAGGTCTTGATTCGCTTGACGCTGCTG (double strand) [CXCL10 tile 6]” was 14.3 Z score.
As to “GAAATTTAGAACGGAAAGTGAAACCA (double strand) [rs10833823 non-REF (G)]”, the figures for the binding signal in data set [6], in data set [5] and in data set [7] (IFNg+LPS extract) were 3.36 Z score, 28.5 Z score and 15.8 Z score, respectively.
With “GCCTAGGACTCGAAGGTATTATTTATTGTAGCCTAGGTCTTGATTCGCTTGACGCTGCTG (double strand) [CXCL10 tile 10]”, the binding signal in data set [1] (LPS 45 min extract) was -0.567 Z score.
With “GCCTAGTGGCTGTTCCTGGGGAAGTCCCATGTCTAGGTCTTGATTCGCTTGACGCTGCTG (double strand) [CXCL10 tile 4]”, the binding signal in data set [1] (LPS 45 min extract) turned out to be 15 Z score.
The same measure, in the same setting: to “GCCTAGCTTAGCAAAACCTGCTGGCTGTTCCTCTAGGTCTTGATTCGCTTGACGCTGCTG (double strand) [CXCL10 tile 1]” belongs 0.046 Z score.
For the sequence “GCCTAGAAGTCCCATGTTGCAGACTCGAAGGTCTAGGTCTTGATTCGCTTGACGCTGCTG (double strand) [CXCL10 tile 7]”, the binding signal in data set [1] (LPS 45 min extract) came out at 0.56 Z score.
On to “GCCTAGCCTGCTGGCTGTTCCTGGGGAAGTCCCTAGGTCTTGATTCGCTTGACGCTGCTG (double strand) [CXCL10 tile 3]”, for which the binding signal is 20.9 Z score in data set [1] (LPS 45 min extract); 7.49 Z score in data set [1] (untreated extract); 3.17 Z score in data set [8]; 3.75 Z score in data set [3] (LPS 45 min extract, replicate 1 (replicate 2: 3.237)); -0.59 Z score in data set [3] (untreated extract, replicate 1 (replicate 2: 0.462)); -1.16 Z score in data set [7] (LPS 45 min extract). The binding signal in data set [7] (untreated extract) was -0.828 Z score.
For “GAAATTTAGAACAGAAAGTGAAACCA (double strand) [rs10833823 REF (A)]”, the binding signal in data set [6] was determined as 1.54 Z score; in data set [5] it was 9.71 Z score; in data set [7] (IFNg+LPS extract) it was 10.6 Z score.
As for “TGATGCAATGAAATGGGGAAGTATTA (double strand) [rs11950944 non-REF (A)]”, the binding signal in data set [2] was found to be 5.99 Z score; in data set [3] (IFNg+LPS extract) it was 2.36 Z score; in data set [4], 2.99 Z score; in data set [5] it was 2.61 Z score.
In the case of “GCCTAGTTGCAGACTCGAAGGTATTATTTATTCTAGGTCTTGATTCGCTTGACGCTGCTG (double strand) [CXCL10 tile 9]”, the binding signal in data set [1] (LPS 45 min extract) amounted to 0.218 Z score.
Regarding “GCCTAGGTTCCTGGGGAAGTCCCATGTTGCAGCTAGGTCTTGATTCGCTTGACGCTGCTG (double strand) [CXCL10 tile 5]”, in data set [1] (LPS 45 min extract), the binding signal stood at 8.52 Z score.

For the origin of these results see PMC8896503.
